Assay results published in patent US20200024330A1.

Assays:
Assay in all cases: cell-based or functional assay
[1] = molecular target: HIV-1 Env of isolate 6535.3 (pseudovirus) (HIV-1 isolate 6535.3, subtype B)
[2] = molecular target: HIV-1 Env of isolate 92WR020 (HIV-1)
[3] = molecular target: HIV-1 Env of isolate 93IN905 (HIV-1)
[4] = molecular target: HIV-1 Env of isolate 94KE105 (subtype AC), on pseudovirus (HIV-1)
[5] = molecular target: HIV-1 Env of isolate 98IN022 (HIV-1)
[6] = molecular target: HIV-1 Env of isolate MGRM-A-007 (clade A), on pseudovirus (HIV-1)
[7] = molecular target: HIV-1 Env of isolate MGRM-A-008 (clade A), on pseudovirus (HIV-1)
[8] = molecular target: HIV-1 Env of isolate MGRM-AE-004 (CRF01_AE), on pseudovirus (HIV-1)
[9] = molecular target: HIV-1 Env of isolate MGRM-AG-002 (CRF_AG), on pseudovirus (HIV-1)
[10] = molecular target: HIV-1 Env of isolate MGRM-AG-013 (CRF_AG), on pseudovirus (HIV-1)
[11] = molecular target: HIV-1 Env of isolate MGRM-C-007 (HIV-1)
[12] = molecular target: HIV-1 Env of isolate MGRM-D-004 (HIV-1)
[13] = molecular target: HIV-1 Env of isolate QH0692.42 (HIV-1)
[14] = molecular target: HIV-1 Env of isolate SF162 (HIV-1) (UniProt P19550)
[15] = molecular target: HIV-1 JR-CSF Env D185A (HIV-1 (isolate JR-CSF)) (UniProt P20871)
[16] = molecular target: HIV-1 JR-CSF Env I165A (HIV-1 (isolate JR-CSF)) (UniProt P20871)
[17] = molecular target: HIV-1 JR-CSF Env N156A (HIV-1 (isolate JR-CSF)) (UniProt P20871)
[18] = molecular target: HIV-1 JR-CSF Env T162A (HIV-1 (isolate JR-CSF)) (UniProt P20871)
[19] = molecular target: HIV-1 Env of isolate MGRM-G-006 (subtype G) (HIV-1)
[20] = molecular target: HIV-1 Env of isolate CMU02 (HIV-1)
[21] = molecular target: HIV-1 CMU02 envelope glycoprotein (Env) on pseudovirus (HIV-1)
[22] = molecular target: HIV-1 Env of isolate 98CN006 (subtype CRF08 BC) (HIV-1)
[23] = molecular target: HIV-1 Env of isolate MG RM-AG-009 (HIV-1)
[24] = molecular target: HIV-1 Env of isolate MG RM-D-002 (subtype D) (HIV-1)
[25] = molecular target: HIV-1 Env of isolate MG RM-D-012 (subtype D) (HIV-1)
[26] = molecular target: HIV-1 Env of isolate MG RM-D-018 (subtype D) (HIV-1)
[27] = molecular target: HIV-1 Env of isolate MGRM-C-023 (pseudovirus) (HIV-1 isolate MGRM-C-023, subtype C)
[28] = molecular target: HIV-1 Env of isolate MGRM-C-024 (pseudovirus) (HIV-1 isolate MGRM-C-024, subtype C)
[29] = molecular target: HIV-1 Env of isolate MGRM-F1-010 (subtype F) (HIV-1)
[30] = molecular target: HIV-1 JRCSF Env (pseudovirus) (HIV-1) (UniProt P20871)
[31] = molecular target: HIV-1 MGRM-Chronic-B-002 Env (pseudovirus) (HIV-1)
[32] = molecular target: HIV-1 THR0.18 Env (pseudovirus) (HIV-1)
[33] = molecular target: HIV-1 92RW024 envelope glycoprotein (Env) on pseudovirus (HIV-1)
[34] = molecular target: HIV-1 94UG103 envelope glycoprotein (Env) on pseudovirus (HIV-1)
[35] = molecular target: HIV-1 Env of isolate 92UG046 (clade D) (HIV-1)
[36] = molecular target: HIV-1 Env of isolate MGRM-D-004 (clade D) (HIV-1)
[37] = molecular target: HIV-1 Env of isolate MGRM-D-008 (clade D) (HIV-1)
[38] = molecular target: HIV-1 Env of isolate MGRM-D-016 (clade D) (HIV-1)
[39] = molecular target: HIV-1 Env of isolate MGRM-G-014 (clade G pseudovirus) (HIV-1)
[40] = molecular target: HIV-1 Env of isolate MGRM-G-016 (clade G pseudovirus) (HIV-1)
[41] = molecular target: HIV-1 Env of pseudovirus APV_17, clade B (HIV-1)
[42] = molecular target: HIV-1 Env of pseudovirus APV_6, clade B (HIV-1)
[43] = molecular target: HIV-1 MGRM-C-007 Env (HIV-1)
[44] = molecular target: HIV-1 MGRM-C-017 Env (HIV-1)

Chain of 5345_I01 (PGT-137) (antibody) (VH): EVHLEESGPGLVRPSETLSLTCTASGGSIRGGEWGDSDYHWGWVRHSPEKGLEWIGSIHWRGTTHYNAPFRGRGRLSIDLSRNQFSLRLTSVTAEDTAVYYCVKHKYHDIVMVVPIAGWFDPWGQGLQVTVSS
Chain of 5345_I01 (PGT-137) (antibody) (VL): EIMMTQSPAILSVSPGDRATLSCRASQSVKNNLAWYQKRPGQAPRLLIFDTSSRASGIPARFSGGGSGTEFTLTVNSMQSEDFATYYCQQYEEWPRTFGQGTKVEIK
Chain of 5329_C19 (PGT-136) (antibody) (VH): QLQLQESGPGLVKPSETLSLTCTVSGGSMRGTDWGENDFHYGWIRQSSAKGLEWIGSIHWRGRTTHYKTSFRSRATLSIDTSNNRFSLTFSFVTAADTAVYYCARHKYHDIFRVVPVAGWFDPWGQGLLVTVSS
Chain of 5329_C19 (PGT-136) (antibody) (VL): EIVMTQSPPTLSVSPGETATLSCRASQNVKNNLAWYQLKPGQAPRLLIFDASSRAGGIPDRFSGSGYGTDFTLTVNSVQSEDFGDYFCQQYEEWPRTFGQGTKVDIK
Chain of PGT-142 (4995_E20) (antibody) (VH): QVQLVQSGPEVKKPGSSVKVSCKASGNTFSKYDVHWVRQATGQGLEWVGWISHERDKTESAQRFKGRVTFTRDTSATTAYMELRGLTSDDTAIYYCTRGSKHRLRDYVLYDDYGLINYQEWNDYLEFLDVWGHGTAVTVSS
Chain of PGT-142 (4995_E20) (antibody) (VL): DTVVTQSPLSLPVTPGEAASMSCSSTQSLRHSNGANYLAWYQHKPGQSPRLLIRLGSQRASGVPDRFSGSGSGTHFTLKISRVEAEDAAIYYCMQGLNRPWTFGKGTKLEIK
Chain of PGT-143 (4980_N08) (antibody) (VH): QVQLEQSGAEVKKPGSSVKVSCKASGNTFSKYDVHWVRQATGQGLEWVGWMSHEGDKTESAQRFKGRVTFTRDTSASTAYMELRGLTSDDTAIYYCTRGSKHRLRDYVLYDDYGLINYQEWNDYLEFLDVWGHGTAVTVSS
Chain of PGT-143 (4980_N08) (antibody) (VL): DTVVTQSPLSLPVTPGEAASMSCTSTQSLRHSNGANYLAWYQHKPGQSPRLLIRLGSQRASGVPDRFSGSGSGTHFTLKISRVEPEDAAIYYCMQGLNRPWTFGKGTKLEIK
Chain of PGT-144 (4970_K22) (antibody) (VH): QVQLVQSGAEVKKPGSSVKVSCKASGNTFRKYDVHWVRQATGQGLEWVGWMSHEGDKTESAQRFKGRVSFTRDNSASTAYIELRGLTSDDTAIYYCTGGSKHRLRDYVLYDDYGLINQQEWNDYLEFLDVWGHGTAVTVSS
Chain of PGT-144 (4970_K22) (antibody) (VL): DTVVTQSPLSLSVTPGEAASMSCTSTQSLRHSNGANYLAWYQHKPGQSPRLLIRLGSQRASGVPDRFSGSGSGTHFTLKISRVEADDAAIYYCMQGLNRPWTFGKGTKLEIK
Chain of PGT-141 (4964_G22; 4993_K13) (antibody) (VH): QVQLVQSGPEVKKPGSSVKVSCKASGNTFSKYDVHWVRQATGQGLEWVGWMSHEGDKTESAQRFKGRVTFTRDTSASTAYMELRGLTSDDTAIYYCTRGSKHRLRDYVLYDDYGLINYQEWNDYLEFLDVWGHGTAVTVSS

Substance	IC50 (µg/mL) neutralization [1]	neutralization IC50 [2]	IC50 [3]	IC50, single-round pseudovirus neutralization [4]	IC50 [5]	IC50, single-round pseudovirus neutralization [6]	IC50, single-round pseudovirus neutralization [7]	IC50, single-round pseudovirus neutralization [8]	IC50, single-round pseudovirus neutralization [9]	IC50, single-round pseudovirus neutralization [10]	IC50 [11]	IC50 [12]	IC50 [13]	IC50 [14]	neutralization IC50 [19]	other results
5136_H01 (PGT-131) (antibody)	0.056 µg/mL	0.168 µg/mL	0.177 µg/mL	0.013 µg/mL	> 50 µg/mL	> 50 µg/mL	> 50 µg/mL	> 50 µg/mL	> 50 µg/mL	0.03 µg/mL	> 50 µg/mL	2.01 µg/mL	> 50 µg/mL	0.025 µg/mL	–	Fold IC50 increase relative to wild-type [15]: 0.7 fold; Fold IC50 increase relative to wild-type [16]: 2.4 fold; Fold IC50 increase relative to wild-type [17]: 1 fold; Fold IC50 increase relative to wild-type [18]: 0.6 fold
PGT-144 (4970_K22) (antibody)	–	–	–	–	–	–	–	–	–	–	–	–	–	–	3.84 µg/mL	–
PGT-143 (4980_N08) (antibody)	–	–	–	–	–	–	–	–	–	–	–	–	–	–	0.031 µg/mL	–
5114_A19 (PGT-128) (antibody)	0.011 µg/mL	0.005 µg/mL	0.009 µg/mL	0.007 µg/mL	0.014 µg/mL	> 50 µg/mL	> 50 µg/mL	> 50 µg/mL	4.99 µg/mL	0.004 µg/mL	0.111 µg/mL	24.9 µg/mL	0.029 µg/mL	0.007 µg/mL	–	Fold IC50 increase relative to wild-type [15]: 1.5 fold; Fold IC50 increase relative to wild-type [16]: 2.1 fold; Fold IC50 increase relative to wild-type [17]: 0.4 fold; Fold IC50 increase relative to wild-type [18]: 1.1 fold
5343_B08 (PGT-135) (antibody)	> 50 µg/mL	0.067 µg/mL	0.011 µg/mL	0.063 µg/mL	0.014 µg/mL	> 50 µg/mL	> 50 µg/mL	> 50 µg/mL	> 50 µg/mL	> 50 µg/mL	> 50 µg/mL	> 50 µg/mL	> 50 µg/mL	0.023 µg/mL	–	Fold IC50 increase relative to wild-type [15]: 1.3 fold; Fold IC50 increase relative to wild-type [16]: 4 fold; Fold IC50 increase relative to wild-type [17]: 0.3 fold; Fold IC50 increase relative to wild-type [18]: 0.9 fold
PGT-122 (antibody)	–	–	–	–	–	–	–	–	–	–	–	–	–	–	–	IC50 (µg/mL), pseudovirus neutralization [2]: 0.009 µg/mL; IC50 (µg/mL), pseudovirus neutralization [20]: > 50 µg/mL
VRC01 (antibody)	–	–	–	–	–	–	–	–	–	–	–	–	–	–	0.055 µg/mL	neutralization IC50 [3]: 0.138 µg/mL; neutralization IC50 [5]: 0.342 µg/mL; neutralization IC50 [13]: 1.19 µg/mL; neutralization IC50 [14]: 0.421 µg/mL
5329_C19 (PGT-136) (antibody)	> 50 µg/mL	2.33 µg/mL	0.011 µg/mL	> 50 µg/mL	13.6 µg/mL	> 50 µg/mL	> 50 µg/mL	> 50 µg/mL	> 50 µg/mL	> 50 µg/mL	> 50 µg/mL	> 50 µg/mL	> 50 µg/mL	0.482 µg/mL	–	–
PGT-141 (4964_G22; 4993_K13) (antibody)	–	–	–	–	–	–	–	–	–	–	–	–	–	–	0.043 µg/mL	–
4838_L06 (PGT-121) (antibody)	–	–	–	–	–	–	–	–	–	–	–	–	–	–	–	IC50 (ug/ml), neutralizing activity [21]: > 10 µg/mL; IC50 (µg/mL), pseudovirus neutralization [22]: 0.01 µg/mL; neutralization IC50 [23]: 0.08 µg/mL; IC50 (µg/mL), pseudovirus neutralization [24]: 0.006 µg/mL; IC50 (µg/mL), pseudovirus neutralization [25]: > 50 µg/mL; IC50 (µg/mL), pseudovirus neutralization [26]: 0.005 µg/mL; IC50 (µg/mL) neutralization [27]: 0.017 µg/mL; IC50 (µg/mL) neutralization [28]: 0.052 µg/mL; IC50 (µg/mL), pseudovirus neutralization [29]: 0.016 µg/mL; IC50, pseudovirus neutralization [30]: 0.027 µg/mL; neutralization IC90 [30]: 0.223 µg/mL; neutralization IC95 [30]: 0.417 µg/mL; IC50, pseudovirus neutralization [31]: 0.386 µg/mL; IC50, pseudovirus neutralization [32]: > 50 µg/mL
1496_C09 (PG9) (TCN-109) (antibody)	–	–	–	–	–	–	–	–	–	–	–	–	–	–	1.98 µg/mL	IC50 (µg/ml), pseudovirus neutralization [33]: 0.18 µg/mL; IC50 (ug/ml), neutralizing activity [34]: 0.31 µg/mL; IC50 neutralization [34]: 0.31 µg/mL; IC80, neutralization [34]: 1.95 µg/mL; IC90 (pseudovirus neutralization) [34]: 3.37 µg/mL; IC90, neutralization [34]: 5.54 µg/mL; IC50 (µg/ml), pseudovirus neutralization [35]: 0.64 µg/mL; IC50 (µg/ml), pseudovirus neutralization [20]: 7.69 µg/mL; IC50 (µg/mL), pseudovirus neutralization [12]: 0.06 µg/mL; IC50 (µg/ml), pseudovirus neutralization [36]: 0.03 µg/mL; IC50 (µg/ml), pseudovirus neutralization [37]: 6.86 µg/mL; IC50 (µg/ml), pseudovirus neutralization [38]: 0.1 µg/mL; IC50 (µg/ml), pseudovirus neutralization [39]: 6.32 µg/mL; IC50 (µg/ml), pseudovirus neutralization [40]: 0.4 µg/mL; IC50 (µg/ml), pseudovirus neutralization [41]: 14.6 µg/mL; IC50 (µg/ml), pseudovirus neutralization [42]: 0.12 µg/mL; IC50 [43]: 0.09 µg/mL; IC50 [44]: 1.52 µg/mL
PGT-142 (4995_E20) (antibody)	–	–	–	–	–	–	–	–	–	–	–	–	–	–	0.019 µg/mL	–
PGV04 (antibody)	–	–	–	–	–	–	–	–	–	–	–	–	–	–	0.083 µg/mL	IC50 (µg/mL), pseudovirus neutralization [20]: 1.24 µg/mL; IC50 (µg/mL), pseudovirus neutralization [12]: 43.2 µg/mL
PGT-121 (antibody)	–	–	–	–	–	–	–	–	–	–	–	–	–	–	–	IC50 (µg/mL), pseudovirus neutralization [2]: 0.004 µg/mL; IC50 (µg/mL), pseudovirus neutralization [20]: > 50 µg/mL
4877_D15 (PGT-122) (antibody)	–	–	–	–	–	–	–	–	–	–	–	–	–	–	–	IC50 (ug/ml), neutralizing activity [34]: 1.46 µg/mL; IC50 (ug/ml), neutralizing activity [21]: > 10 µg/mL; IC50 (µg/mL), pseudovirus neutralization [22]: 0.021 µg/mL; neutralization IC50 [23]: 0.128 µg/mL; IC50 (µg/mL), pseudovirus neutralization [24]: 0.005 µg/mL; IC50 (µg/mL), pseudovirus neutralization [25]: > 50 µg/mL; IC50 (µg/mL), pseudovirus neutralization [26]: 0.007 µg/mL; IC50 (µg/mL) neutralization [27]: 0.027 µg/mL; IC50 (µg/mL) neutralization [28]: 0.102 µg/mL; IC50 (µg/mL), pseudovirus neutralization [29]: 0.024 µg/mL; IC50, pseudovirus neutralization [30]: 0.057 µg/mL; IC50, pseudovirus neutralization [31]: 1.8 µg/mL; IC50, pseudovirus neutralization [32]: > 50 µg/mL
5345_I01 (PGT-137) (antibody)	> 50 µg/mL	0.005 µg/mL	0.042 µg/mL	18.5 µg/mL	0.408 µg/mL	> 50 µg/mL	> 50 µg/mL	> 50 µg/mL	> 50 µg/mL	> 50 µg/mL	> 50 µg/mL	> 50 µg/mL	> 50 µg/mL	3.41 µg/mL	–	–
5147_N06 (PGT-130) (antibody)	0.031 µg/mL	0.039 µg/mL	0.02 µg/mL	0.004 µg/mL	> 50 µg/mL	> 50 µg/mL	> 50 µg/mL	2.43 µg/mL	> 50 µg/mL	0.01 µg/mL	> 50 µg/mL	1.21 µg/mL	> 50 µg/mL	0.007 µg/mL	–	IC50 (ug/ml), neutralizing activity [34]: 0.635 µg/mL; IC50 (ug/ml), neutralizing activity [21]: > 10 µg/mL; Fold IC50 increase relative to wild-type [15]: 0.9 fold; Fold IC50 increase relative to wild-type [16]: 3.2 fold; Fold IC50 increase relative to wild-type [17]: 1.5 fold; Fold IC50 increase relative to wild-type [18]: 0.6 fold
